# Assay results reported in patent publication US20050202033A1.
# Molecular target: recombinant human or murine heat shock protein 70 (hsp70) (human or murine) (UniProt P0DMV8)
# Assay: on hsp70
# recombinant human or murine heat shock protein 70 (hsp70) (human or murine), sequence (P0DMV8 whole entry): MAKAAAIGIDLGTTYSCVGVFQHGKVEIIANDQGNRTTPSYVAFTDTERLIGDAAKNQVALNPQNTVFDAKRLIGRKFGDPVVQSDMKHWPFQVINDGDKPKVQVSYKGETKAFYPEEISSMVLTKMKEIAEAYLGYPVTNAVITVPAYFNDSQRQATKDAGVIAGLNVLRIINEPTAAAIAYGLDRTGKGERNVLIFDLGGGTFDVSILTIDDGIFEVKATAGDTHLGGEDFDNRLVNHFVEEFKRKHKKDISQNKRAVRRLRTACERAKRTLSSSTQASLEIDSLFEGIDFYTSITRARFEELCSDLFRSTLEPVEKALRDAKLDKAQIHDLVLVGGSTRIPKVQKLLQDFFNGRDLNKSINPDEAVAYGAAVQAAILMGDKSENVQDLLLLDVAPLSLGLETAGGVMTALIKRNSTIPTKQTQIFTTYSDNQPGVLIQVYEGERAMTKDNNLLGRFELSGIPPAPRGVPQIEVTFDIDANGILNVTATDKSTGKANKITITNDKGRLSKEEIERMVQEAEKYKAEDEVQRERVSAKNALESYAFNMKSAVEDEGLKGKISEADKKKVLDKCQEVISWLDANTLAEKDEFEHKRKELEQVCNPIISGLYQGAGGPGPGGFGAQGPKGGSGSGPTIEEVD
row,Molecule,Kd [µM]
1,[…] (HIV Pol: 464-472) (peptide; other documents disagree on this pair),83

# Molecular target: recombinant human or murine heat shock protein 70 (hsp70) (human or murine) (UniProt P0DMV8)
# Assay: binding inhibition assay (Hill plot) against tritiated … on hsp70
row,Molecule,Kd [µM]
1,[…] (HPV Strain 16 E7 11-20) (peptide; other documents disagree on this pair),91

# Molecular target: T1, recombinant human or murine heat shock protein 70 (hsp70) (human or murine), P0DMV8
# Assay: binding inhibition assay as in Example 2, on hsp70
# T1 sequence (P0DMV8 whole entry): as above
row,Molecule,Kd [µM]
1,"IMDQVPFSV (modifications not checked) [… (Gp100 209-217, T210M)]",2570
2,KASEKIFYVGSGNLLRLTGW (modifications not checked),1.4
3,IMDQVPFSVGSGNLLRLTGW (modifications not checked),0.9
4,SVYDFFVWLGSGNLLRLTGW (modifications not checked),2.9
5,SVYDFFVWL (modifications not checked) [… (Trp-2: 180-188)],81
6,YLEPGPVTV (modifications not checked) [… (GP100: 280-288 (288V))],71
7,GLYDGMEHLGSGNLLRLTGW (modifications not checked),1.1
8,YMDGTMSQVGSGNLLRLTGW (modifications not checked),1.8
9,"YMDGTMSQV (modifications not checked) [… (Tyrosinase 368-376, 370D)]",209
10,KASEKIFYV (modifications not checked) [… (SSX-2: 41-49)],57
11,YLEPGPVTVGSGNLLRLTGW (modifications not checked),2
12,SLLMWITQVGSGNLLRLTGW (modifications not checked),2.2
13,GLYDGMEHL (modifications not checked) [… (MAGE-10: 254-262)],48

# Molecular target: T1, recombinant human or murine heat shock …
# Assay: on hsp70
row,Molecule,Kd [µM]
1,VLDVGDAYFSVGSGNLLRLTGW (modifications not checked),2
2,AIIRILQQL (modifications not checked) [… (HIV Vpr: 59-67)],93
3,SIINFEKL (modifications not checked) [SIINFEKL (ovalbumin amino acids 257-264)],235
4,ALKHRAYEL (modifications not checked),97
5,ILKEPVHGVGSGNLLRLTGW (modifications not checked),1.2
6,AFHHVARELGSGNLLRLTGW (modifications not checked),2.1
7,SLFNTVATLGSGNLLRLTGW (modifications not checked),1.9
8,ALKHRAYELGSGNLLRLTGW (modifications not checked),1.1
9,VIYQYMDDLGSGNLLRLTGW (modifications not checked),1.7
10,AFHHVAREL (modifications not checked),84
11,NLLRLTGWGSGSIINFEKL (modifications not checked),1.6
12,SLYNTVATLGSGNLLRLTGW (modifications not checked),1.8
13,AIIRILQQLGSGNLLRLTGW (modifications not checked) [ALIRJ… (as printed; hybrid antigen of the Vpr: 59-67 epitope)],0.6
14,VLDVGDAYFSV (modifications not checked) [… (HIV Pol: 263-273)],110
15,SLFNTVATL (modifications not checked) [… (HIV Gag/p17: 77-85 (79F))],35
16,RGYVYQGL (modifications not checked) [RGYVYQGL (VSV nucleoprotein amino acids 52-59)],82
17,VIYQYMDDL (modifications not checked) [… (HIV Pol: 334-342)],91

# Molecular target: T1, recombinant human or murine heat shock …
# Assay: binding inhibition assay (Hill plot) against tritiated … on hsp70
row,Molecule,Kd [µM]
1,NLLRLTGW (modifications not checked),1.85
2,"IMDQVPFSV (modifications not checked) [… (Gp100 209-217, T210M)]",2560
3,SIINFEKL (modifications not checked) [SIINFEKL (ovalbumin amino acids 257-264)],279
4,IMDQVPFSVGSGHWDFAWPW (modifications not checked),155
5,SIINFEKLGSGFYQLALTW (modifications not checked) [SIINFEKLgsgFYQLALTW],1.43
6,HWDFAWPWGSGSIINFEKL (modifications not checked) [HWDFAWPWgsgSIINFEKL],4.3
7,YMDGTMSQVGSGHWDFAWPW (modifications not checked),24
8,IMDQVPFSVGSGNLLRLTGW (modifications not checked),3.1
9,SIINFEKLGSGNLLRLTGW (modifications not checked) [SIINFEKLgsgNLLRLTGW],1.2
10,FYQLALTW (modifications not checked),5.9
11,TLGIVCPIGSGHWDFAWPW (modifications not checked) [TLGIVCPIgsgHWDFAWPW],9.1
12,ALFDIESKV (modifications not checked) [… (Prostate Specific Membrane Antigen 771-779)],145
13,SIINFEKLGSGRKLFFNLRW (modifications not checked) [SIINFEKLgsg…],7
14,YMDGTMSQVGSGNLLRLTGW (modifications not checked),2.65
15,SIINFEKLGSGHWDFAWPW (modifications not checked) [SIINFEKLgsgHWDFAWPW],40
16,"YMDGTMSQV (modifications not checked) [… (Tyrosinase 368-376, 370D)]",204
17,RKLFFNLRW (modifications not checked),15
18,YMLDLQPETTGSGHWDFAWPW (modifications not checked),27
19,TLGIVCPIGSGNLLRLTGW (modifications not checked) [TLGIVCPIgsgNLLRLTGW],5.2
20,HWDFAWPWGSGYMDGTMSQV (modifications not checked) [HWDFAWPWgsg…],29
21,HWDFAWPW (modifications not checked),120
22,ALFDIESKVGSGNLLRLTGW (modifications not checked) [PSMA P2 hybrid antigen with NLLRLTGW],1.3
23,TLGIVCPI (modifications not checked) [TLGIVCPI (HPV Strain 16 E7 86-93)],187

# Molecular target: T1, recombinant human or murine heat shock …
# Assay: binding inhibition assay (Hill plot) or Scatchard analysis of the reference on hsp70
row,Molecule,Kd [µM]
1,ALFDIESKVGSGHWDFAWPW (modifications not checked),22

# Molecular target: T1, recombinant human or murine heat shock …
# Assay: competition against a labeled reporter peptide on HSP70; Kd calculated from IC50 (Hill plot)
row,Molecule,fold increase in affinity over … (SEQ ID NO:368) [fold]
1,SIINFEKLGSGNLLRLTGW (modifications not checked) [SIINFEKLgsgNLLRLTGW],15
